Kd and stoichiometry N data for three substances are collected here from publication PMC7470827.

As a reminder, the Kd is the equilibrium constant for the complex coming apart. One may read the stoichiometry N as a count of units in the complex or per binding partner.

Test [1] deals with Syntaxin-16 N-peptide (UniProt Q8BVI5). Particulars: cited from earlier work.
Test [2] concerns the target Untagged Tlg2 SNARE motif (residues 258-327) (Chaetomium thermophilum). Description: AUC; sedimentation velocity, 42,000 rpm, 20°C, gel filtration buffer; MBP-Tlg2(258-327) 9 µM, Tlg2(79-200) 72 µM, Tlg2(258-327) 168 µM; c(S) by SEDFIT. On the technique in general: Size exclusion chromatography separates by hydrodynamic size, large species first.
The target in test [3] is MBP-tagged Tlg2 SNARE motif (residues 258-327) (Chaetomium thermophilum). Described as above.

UniProt Q8BVI5, sequence (Q8BVI5 1-27): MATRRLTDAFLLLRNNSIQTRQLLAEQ

As to Vps45 (from UniProt P97390), in test [1], the Kd is 27 nM.
In turn, “Untagged Tlg2 SNARE motif (residues 258-327) (domain or fragment)” gave a stoichiometry N in test [2] of 4.
For “MBP-tagged Tlg2 SNARE motif (residues 258-327) (domain or fragment)”, the stoichiometry N in test [3] is 4.
